We go through three molecules from US20180016312A1 (Pieris, published 2018).

Experiment [1] concerns the target T1, hNGAL lipocalin mutein SEQ ID NO: 1.
T1 construct: Mutein of mature hNGAL
T1 chain: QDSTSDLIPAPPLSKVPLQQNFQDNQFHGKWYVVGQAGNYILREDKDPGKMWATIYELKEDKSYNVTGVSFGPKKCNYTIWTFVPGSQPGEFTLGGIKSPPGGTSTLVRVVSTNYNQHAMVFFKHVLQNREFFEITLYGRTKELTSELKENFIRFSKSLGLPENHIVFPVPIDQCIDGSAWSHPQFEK
Briefly: solution competition ELISA; 0.1 nM SEQ ID NO: 1 with varied soluble ligand, free mutein captured on immobilised hAng-2. As to the method: (§1) In the following detailed experimental protocol, incubation and washing steps were performed as described above in the competition ELISA protocol (see Example 5).
(§2) The residual supernatants were discarded and 20 μl HRP-labeled anti-lipocalin-mutein antibody was added at a predetermined optimal concentration in PBS-T/BSA and incubated for 1 h at RT. […] After washing, 20 μl fluorogenic HRP substrate (Quantablue, Pierce) was added to each well, and the reaction was allowed to proceed for 60 minutes. The fluorescence intensity of every well on the plate was read using a Genios Plus Microplate reader (Tecan).

The target in experiment [2] is T2, hNGAL lipocalin mutein SEQ ID NO: 9.
T2 construct: Mutein of mature hNGAL; Biotinylated with NHS-PEG4-Biotin for the SPR assay
T2 chain: T1 chain with Q36H, N65D, G68E, T79R
Put plainly: solution competition ELISA; 0.1 nM SEQ ID NO: 9 with varied soluble ligand, free mutein captured on immobilised hAng-2. As to the method:
as §1, §2

The target in experiment [3] is T3, hNGAL lipocalin mutein SEQ ID NO: 7.
T3 construct: Mutein of mature hNGAL; Biotinylated with NHS-PEG4-Biotin for the SPR assay
T3 chain: T1 chain with Q36H, G49E, N65D, G68E, T79R, G103D
Put plainly: solution competition ELISA; 0.1 nM SEQ ID NO: 7 with varied soluble ligand, free mutein captured on immobilised hAng-2. As to the method: as §1, §2

Experiment [4] concerns the target T4, hNGAL lipocalin mutein SEQ ID NO: 11.
T4 construct: Mutein of mature hNGAL; Biotinylated with NHS-PEG4-Biotin for the SPR assay
T4 chain: T1 chain with G49V, N65D, G68E, T79R, P100L
Put plainly: solution competition ELISA; 0.1 nM SEQ ID NO: 11 with varied soluble ligand, free mutein captured on immobilised hAng-2. As to the method: as §1, §2

In experiment [5] the target is benchmark antibody 1 (SEQ ID NOs: 17/18). Put plainly: solution competition ELISA; 0.1 nM SEQ ID NO: 17/18 with varied soluble ligand, free antibody captured on immobilised hAng-2.
The target of experiment [6] is T5, hNGAL lipocalin mutein SEQ ID NO: 8.
T5 construct: Mutein of mature hNGAL; Biotinylated with NHS-PEG4-Biotin for the SPR assay
T5 chain: T1 chain with N65D, G68E, P73A, T79R, P100D
Put plainly: solution competition ELISA; 0.1 nM SEQ ID NO: 8 with varied soluble ligand, free mutein captured on immobilised hAng-2. As to the method:
as §1, §2

Experiment [7] addresses T6, hNGAL lipocalin mutein SEQ ID NO: 3.
T6 construct: Mutein of mature hNGAL
T6 chain: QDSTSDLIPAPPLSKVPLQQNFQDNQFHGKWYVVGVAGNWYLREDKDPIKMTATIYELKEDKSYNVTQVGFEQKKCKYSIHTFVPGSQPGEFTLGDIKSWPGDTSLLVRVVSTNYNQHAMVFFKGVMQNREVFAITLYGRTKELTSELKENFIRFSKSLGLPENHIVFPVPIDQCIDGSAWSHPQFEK
Put plainly: solution competition ELISA; 0.1 nM SEQ ID NO: 3 with varied soluble ligand, free mutein captured on immobilised hAng-2. The protocol:
as §1, §2

Residue numbers refer to the chain shown, from its start.

B1: human angiopoietin-2 (ligand, UniProt O15123 19-496, looked up)
chain: YNNFRKSMDSIGKKQYQVQHGSCSYTFLLPEMDNCRSSSSPYVSNAVQRDAPLEYDDSVQRLQVLENIMENNTQWLMKLENYIQDNMKKEMVEIQQNAVQNQTAVMIEIGTNLLNQTAEQTRKLTDVEAQVLNQTTRLELQLLEHSLSTNKLEKQILDQTSEINKLQDKNSFLEKKVLAMEDKHIIQLQSIKEEKDQLQVLVSKQNSIIEELEKKIVTATVNNSVLQKQQHDLMETVNNLLTMMSTSNSAKDPTVAKEEQISFRDCAEVFKSGHTTNGIYTLTFPNSTEEIKAYCDMEAGGGGWTIIQRREDGSVDFQRTWKEYKVGFGNPSGEYWLGNEFVSQLTNQQRYVLKIHLKDWEGNEAYSLYEHFYLSSEELNYRIHLKGLTGTAGKISSISQPGNDFSTKDGDNDKCICKCSQMLTGGWWFDACGPSNLNGMYYPQRQNTNKFNGIKWYYWKGSGYSLKATTMMIRPADF
notes: Bought recombinant protein with a His tag (detected by anti-HIS-tag antibody); also called human Ang-2; hAng-2
Take B1: the concentration for half-maximal inhibition (IC50) was determined as 2.5 nM in experiment [1]; 0.76 nM in experiment [2]; 0.41 nM in experiment [3]; 0.49 nM in experiment [4]; 0.6 nM in experiment [5]; 0.5 nM in experiment [6]. Besides, the IC50 in experiment [7] was 1.4 nM.

B2: mouse angiopoietin-2 (ligand, UniProt O35608 19-496, looked up)
chain: YSNFRKSVDSTGRRQYQVQNGPCSYTFLLPETDSCRSSSSPYMSNAVQRDAPLDYDDSVQRLQVLENILENNTQWLMKLENYIQDNMKKEMVEIQQNVVQNQTAVMIEIGTSLLNQTAAQTRKLTDVEAQVLNQTTRLELQLLQHSISTNKLEKQILDQTSEINKLQNKNSFLEQKVLDMEGKHSEQLQSMKEQKDELQVLVSKQSSVIDELEKKLVTATVNNSLLQKQQHDLMETVNSLLTMMSSPNSKSSVAIRKEEQTTFRDCAEIFKSGLTTSGIYTLTFPNSTEEIKAYCDMDVGGGGWTVIQHREDGSVDFQRTWKEYKEGFGSPLGEYWLGNEFVSQLTGQHRYVLKIQLKDWEGNEAHSLYDHFYLAGEESNYRIHLTGLTGTAGKISSISQPGSDFSTKDSDNDKCICKCSQMLSGGWWFDACGPSNLNGQYYPQKQNTNKFNGIKWYYWKGSGYSLKATTMMIRPADF
notes: Bought recombinant protein; also called mouse Ang-2; mAng-2
On to B2, for which the IC50 in experiment [1] is 0.65 nM; in experiment [2] it was 0.11 nM; in experiment [3], 0.05 nM; in experiment [4], 0.05 nM; in experiment [5] it was 0.07 nM; in experiment [6], 0.08 nM. For the same molecule, the IC50 in experiment [7] amounted to 1.8 nM.

B3: human angiopoietin-1 (ligand, UniProt Q15389 20-498, looked up)
chain: SNQRRSPENSGRRYNRIQHGQCAYTFILPEHDGNCRESTTDQYNTNALQRDAPHVEPDFSSQKLQHLEHVMENYTQWLQKLENYIVENMKSEMAQIQQNAVQNHTATMLEIGTSLLSQTAEQTRKLTDVETQVLNQTSRLEIQLLENSLSTYKLEKQLLQQTNEILKIHEKNSLLEHKILEMEGKHKEELDTLKEEKENLQGLVTRQTYIIQELEKQLNRATTNNSVLQKQQLELMDTVHNLVNLCTKEGVLLKGGKREEEKPFRDCADVYQAGFNKSGIYTIYINNMPEPKKVFCNMDVNGGGWTVIQHREDGSLDFQRGWKEYKMGFGNPSGEYWLGNEFIFAITSQRQYMLRIELMDWEGNRAYSQYDRFHIGNEKQNYRLYLKGHTGTAGKQSSLILHGADFSTKDADNDNCMCKCALMLTGGWWFDACGPSNLNGMFYTAGQNHGKLNGIKWHYFKGPSYSLRSTTMMIRPLDF
notes: Bought recombinant protein; also called human Ang-1; hAng-1
For the molecule B3, the IC50 in experiment [2] turned out to be 1.9 nM; in experiment [3], 0.47 nM; in experiment [4], 0.89 nM; in experiment [5] it was 26 nM; in experiment [6] it was 9.3 nM.
